Experiments:
[1] = molecular target: Beroe collagen IV NC1 domains (collagenase-solubilised NC1 hexamer) (Beroe (endogenous in whole ctenophore tissue)); assay: SDS-PAGE under reducing and non-reducing conditions with Western blot; NC1 hexamer fractions from gel filtration; 12% gels, 5% beta-mercaptoethanol or none; for Beroe reduction in TBS with various concentrations of DTT (30 min, 37°C), alkylation with iodoacetamide, non-reducing SDS-PAGE; blot with JK-2
[2] = molecular target: Beroe collagen IV NC1 domains (collagenase-solubilised NC1 hexamer) (Beroe (endogenous in whole ctenophore tissue)); assay: SEC; collagenase digest of whole ctenophore tissue on Superdex 200 10/300 GL; elution compared with native, purified placental basement membrane NC1 hexamer run successively; fractions 12 mL to 16.4 mL blotted with NC1-specific monoclonal antibody (JK-2)
[3] = molecular target: Pleurobrachia collagen IV NC1 domains (collagenase-solubilised NC1 hexamer) (Pleurobrachia (endogenous in whole ctenophore tissue)); assay: SDS-PAGE under reducing and non-reducing conditions with Western blot; NC1 hexamer fractions from gel filtration; 12% gels, 5% beta-mercaptoethanol or none; for Beroe reduction in TBS with various concentrations of DTT (30 min, 37°C), alkylation with iodoacetamide, non-reducing SDS-PAGE; blot with JK-2
[4] = molecular target: Pleurobrachia collagen IV NC1 domains (collagenase-solubilised NC1 hexamer) (Pleurobrachia (endogenous in whole ctenophore tissue)); assay: SEC; collagenase digest of whole ctenophore tissue on Superdex 200 10/300 GL; elution compared with native, purified placental basement membrane NC1 hexamer run successively; fractions 12 mL to 16.4 mL blotted with NC1-specific monoclonal antibody (JK-2)
[5] = molecular target: Mnemiopsis collagen IV NC1 domains (collagenase-solubilised NC1 hexamer) (Mnemiopsis (endogenous in whole ctenophore tissue)); assay: SDS-PAGE under reducing and non-reducing conditions with Western blot; NC1 hexamer fractions from gel filtration; 12% gels, 5% beta-mercaptoethanol or none; for Beroe reduction in TBS with various concentrations of DTT (30 min, 37°C), alkylation with iodoacetamide, non-reducing SDS-PAGE; blot with JK-2
[6] = molecular target: Mnemiopsis collagen IV NC1 domains (collagenase-solubilised NC1 hexamer) (Mnemiopsis (endogenous in whole ctenophore tissue)); assay: SEC; collagenase digest of whole ctenophore tissue on Superdex 200 10/300 GL; elution compared with native, purified placental basement membrane NC1 hexamer run successively; fractions 12 mL to 16.4 mL blotted with NC1-specific monoclonal antibody (JK-2)

## Beroe collagen IV NC1 domains (collagenase-solubilised NC1 hexamer)
[1]
  stoichiometry N: 2
[2]
  stoichiometry N: 6

## Pleurobrachia collagen IV NC1 domains (collagenase-solubilised NC1 hexamer)
[3]
  stoichiometry N: 2
[4]
  stoichiometry N: 6

## Mnemiopsis collagen IV NC1 domains (collagenase-solubilised NC1 hexamer)
[5]
  stoichiometry N: 2
[6]
  stoichiometry N: 6
